Measured values as given in US20080085863A1 (WISCONSIN ALUMNI RESEARCH FOUNDATION, published 2008).

How the values were obtained:
[1] = biological target: T1, recombinant mutant α2-macroglobulin with the native bait region replaced by sequences flanking the human probiglycan BMP-1 cleavage site (b-α2M)
T1 chain: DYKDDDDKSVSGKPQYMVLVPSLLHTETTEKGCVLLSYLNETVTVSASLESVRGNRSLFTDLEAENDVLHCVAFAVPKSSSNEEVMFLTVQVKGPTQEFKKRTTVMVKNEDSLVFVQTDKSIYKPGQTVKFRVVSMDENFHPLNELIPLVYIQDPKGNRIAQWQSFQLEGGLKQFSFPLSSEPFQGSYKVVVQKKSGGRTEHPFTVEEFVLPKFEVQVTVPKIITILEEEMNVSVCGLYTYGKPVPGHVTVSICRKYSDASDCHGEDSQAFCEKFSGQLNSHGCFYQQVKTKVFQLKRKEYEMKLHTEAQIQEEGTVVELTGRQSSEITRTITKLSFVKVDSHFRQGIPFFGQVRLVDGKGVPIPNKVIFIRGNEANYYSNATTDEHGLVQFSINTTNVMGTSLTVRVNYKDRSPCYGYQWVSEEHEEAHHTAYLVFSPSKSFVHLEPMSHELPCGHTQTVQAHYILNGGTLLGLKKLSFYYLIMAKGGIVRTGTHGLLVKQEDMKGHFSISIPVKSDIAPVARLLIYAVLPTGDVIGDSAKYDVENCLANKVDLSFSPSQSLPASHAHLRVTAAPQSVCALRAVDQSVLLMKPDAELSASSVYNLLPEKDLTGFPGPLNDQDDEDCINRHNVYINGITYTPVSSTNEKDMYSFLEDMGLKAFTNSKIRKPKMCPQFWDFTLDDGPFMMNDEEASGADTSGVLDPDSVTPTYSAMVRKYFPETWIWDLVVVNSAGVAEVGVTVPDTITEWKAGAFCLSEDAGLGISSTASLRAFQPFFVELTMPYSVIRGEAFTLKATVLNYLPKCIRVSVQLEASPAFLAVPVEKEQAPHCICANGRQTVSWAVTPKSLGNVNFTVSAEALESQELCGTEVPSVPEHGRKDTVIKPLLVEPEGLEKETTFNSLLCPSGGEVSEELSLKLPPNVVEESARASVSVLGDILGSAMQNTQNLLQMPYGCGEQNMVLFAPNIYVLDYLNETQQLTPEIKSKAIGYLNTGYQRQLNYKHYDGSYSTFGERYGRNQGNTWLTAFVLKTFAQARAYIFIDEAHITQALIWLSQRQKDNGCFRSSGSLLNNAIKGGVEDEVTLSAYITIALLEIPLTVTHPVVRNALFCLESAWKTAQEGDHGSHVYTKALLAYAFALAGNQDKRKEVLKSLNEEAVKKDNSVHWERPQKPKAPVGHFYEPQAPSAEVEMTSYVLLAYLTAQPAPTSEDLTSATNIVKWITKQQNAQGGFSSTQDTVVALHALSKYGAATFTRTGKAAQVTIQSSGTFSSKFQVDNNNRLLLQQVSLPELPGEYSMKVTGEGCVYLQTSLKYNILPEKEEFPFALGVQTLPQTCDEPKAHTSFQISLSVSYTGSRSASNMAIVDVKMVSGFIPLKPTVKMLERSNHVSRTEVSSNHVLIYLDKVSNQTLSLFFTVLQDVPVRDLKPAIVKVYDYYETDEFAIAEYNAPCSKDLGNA

[2] = biological target: T2, methylamine-treated human α2-macroglobulin
T2 chain: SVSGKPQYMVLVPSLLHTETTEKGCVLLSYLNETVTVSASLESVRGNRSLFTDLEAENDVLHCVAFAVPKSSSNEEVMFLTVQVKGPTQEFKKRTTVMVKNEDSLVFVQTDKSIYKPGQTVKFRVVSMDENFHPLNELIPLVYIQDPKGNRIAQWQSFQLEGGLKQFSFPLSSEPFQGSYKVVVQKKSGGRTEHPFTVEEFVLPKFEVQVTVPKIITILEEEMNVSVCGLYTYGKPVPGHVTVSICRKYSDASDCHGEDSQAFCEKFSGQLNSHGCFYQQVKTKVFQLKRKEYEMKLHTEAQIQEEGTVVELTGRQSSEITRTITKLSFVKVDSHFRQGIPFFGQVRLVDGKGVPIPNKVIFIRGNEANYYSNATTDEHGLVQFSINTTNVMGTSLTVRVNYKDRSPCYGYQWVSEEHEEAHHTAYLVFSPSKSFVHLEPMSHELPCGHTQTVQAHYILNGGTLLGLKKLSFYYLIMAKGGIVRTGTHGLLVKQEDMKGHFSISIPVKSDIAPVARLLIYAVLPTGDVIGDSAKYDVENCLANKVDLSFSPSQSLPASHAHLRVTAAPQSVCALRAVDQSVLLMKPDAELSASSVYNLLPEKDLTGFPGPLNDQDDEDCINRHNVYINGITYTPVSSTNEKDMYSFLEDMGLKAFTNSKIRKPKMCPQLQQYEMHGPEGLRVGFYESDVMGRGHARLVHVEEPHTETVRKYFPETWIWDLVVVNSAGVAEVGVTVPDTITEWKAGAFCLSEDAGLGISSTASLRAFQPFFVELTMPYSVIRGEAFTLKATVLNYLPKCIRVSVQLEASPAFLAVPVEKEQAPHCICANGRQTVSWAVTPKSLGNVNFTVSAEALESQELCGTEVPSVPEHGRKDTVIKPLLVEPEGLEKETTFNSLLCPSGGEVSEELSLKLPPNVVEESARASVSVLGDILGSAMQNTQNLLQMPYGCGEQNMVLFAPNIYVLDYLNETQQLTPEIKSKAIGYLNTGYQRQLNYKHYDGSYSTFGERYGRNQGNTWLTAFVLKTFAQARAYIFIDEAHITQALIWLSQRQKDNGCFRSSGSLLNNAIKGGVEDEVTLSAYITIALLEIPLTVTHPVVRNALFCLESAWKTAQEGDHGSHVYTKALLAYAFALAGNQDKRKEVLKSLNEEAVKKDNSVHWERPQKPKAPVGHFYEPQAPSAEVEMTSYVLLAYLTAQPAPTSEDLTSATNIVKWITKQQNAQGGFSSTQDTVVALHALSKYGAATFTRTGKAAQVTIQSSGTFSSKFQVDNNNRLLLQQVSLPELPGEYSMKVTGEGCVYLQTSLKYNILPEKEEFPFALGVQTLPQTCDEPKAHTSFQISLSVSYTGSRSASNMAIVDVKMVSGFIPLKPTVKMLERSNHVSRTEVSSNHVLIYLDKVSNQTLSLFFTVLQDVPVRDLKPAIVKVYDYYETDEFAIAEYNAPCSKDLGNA

[3] = biological target: T1, recombinant mutant α2-macroglobulin …; test: 2 hour co-incubation of 40 nM 35S-BMP-1 with 40 nM α2M, SDS-PAGE autofluorogram
[4] = biological target: T3, human α2-macroglobulin from plasma (Sigma-Aldrich); test: as above
T3 chain: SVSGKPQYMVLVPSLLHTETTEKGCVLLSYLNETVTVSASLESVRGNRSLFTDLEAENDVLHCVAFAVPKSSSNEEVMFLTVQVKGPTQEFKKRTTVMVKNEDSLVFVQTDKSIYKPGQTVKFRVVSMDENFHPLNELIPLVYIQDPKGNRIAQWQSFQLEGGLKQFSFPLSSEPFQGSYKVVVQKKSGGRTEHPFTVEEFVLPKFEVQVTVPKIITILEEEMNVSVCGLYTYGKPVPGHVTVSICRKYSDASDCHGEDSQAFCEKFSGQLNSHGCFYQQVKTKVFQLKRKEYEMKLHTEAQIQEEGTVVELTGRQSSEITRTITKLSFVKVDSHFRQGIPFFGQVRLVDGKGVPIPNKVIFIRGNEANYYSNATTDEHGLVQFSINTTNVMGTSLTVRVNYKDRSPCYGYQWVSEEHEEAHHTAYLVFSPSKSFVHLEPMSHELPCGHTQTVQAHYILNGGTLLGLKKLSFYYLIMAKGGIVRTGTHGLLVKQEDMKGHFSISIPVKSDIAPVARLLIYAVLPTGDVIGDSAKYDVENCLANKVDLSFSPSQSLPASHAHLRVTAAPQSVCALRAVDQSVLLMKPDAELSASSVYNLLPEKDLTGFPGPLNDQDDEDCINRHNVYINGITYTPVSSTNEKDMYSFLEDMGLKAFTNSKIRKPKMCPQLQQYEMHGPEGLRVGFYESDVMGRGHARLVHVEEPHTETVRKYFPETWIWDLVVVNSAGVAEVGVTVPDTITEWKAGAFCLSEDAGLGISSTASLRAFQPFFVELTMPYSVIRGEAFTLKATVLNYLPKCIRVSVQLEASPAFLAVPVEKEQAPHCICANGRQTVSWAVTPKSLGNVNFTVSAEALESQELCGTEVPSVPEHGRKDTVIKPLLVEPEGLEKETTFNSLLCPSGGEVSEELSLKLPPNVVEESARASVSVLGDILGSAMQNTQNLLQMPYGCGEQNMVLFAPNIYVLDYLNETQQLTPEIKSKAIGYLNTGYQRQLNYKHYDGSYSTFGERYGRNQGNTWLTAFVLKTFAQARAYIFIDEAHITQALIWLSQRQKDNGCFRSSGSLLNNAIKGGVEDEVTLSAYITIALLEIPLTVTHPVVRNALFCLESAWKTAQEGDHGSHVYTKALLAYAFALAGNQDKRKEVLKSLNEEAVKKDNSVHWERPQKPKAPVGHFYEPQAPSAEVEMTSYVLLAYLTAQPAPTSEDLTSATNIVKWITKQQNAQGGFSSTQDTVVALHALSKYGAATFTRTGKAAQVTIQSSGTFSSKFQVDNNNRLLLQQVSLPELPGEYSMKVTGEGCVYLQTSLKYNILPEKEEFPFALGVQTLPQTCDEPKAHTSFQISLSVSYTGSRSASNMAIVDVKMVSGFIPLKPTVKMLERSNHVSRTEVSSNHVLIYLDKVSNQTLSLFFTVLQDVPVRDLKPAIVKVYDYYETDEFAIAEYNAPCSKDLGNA

[5] = biological target: T4, recombinant wild type α2-macroglobulin (FLAG-tagged); test: as above
T4 chain: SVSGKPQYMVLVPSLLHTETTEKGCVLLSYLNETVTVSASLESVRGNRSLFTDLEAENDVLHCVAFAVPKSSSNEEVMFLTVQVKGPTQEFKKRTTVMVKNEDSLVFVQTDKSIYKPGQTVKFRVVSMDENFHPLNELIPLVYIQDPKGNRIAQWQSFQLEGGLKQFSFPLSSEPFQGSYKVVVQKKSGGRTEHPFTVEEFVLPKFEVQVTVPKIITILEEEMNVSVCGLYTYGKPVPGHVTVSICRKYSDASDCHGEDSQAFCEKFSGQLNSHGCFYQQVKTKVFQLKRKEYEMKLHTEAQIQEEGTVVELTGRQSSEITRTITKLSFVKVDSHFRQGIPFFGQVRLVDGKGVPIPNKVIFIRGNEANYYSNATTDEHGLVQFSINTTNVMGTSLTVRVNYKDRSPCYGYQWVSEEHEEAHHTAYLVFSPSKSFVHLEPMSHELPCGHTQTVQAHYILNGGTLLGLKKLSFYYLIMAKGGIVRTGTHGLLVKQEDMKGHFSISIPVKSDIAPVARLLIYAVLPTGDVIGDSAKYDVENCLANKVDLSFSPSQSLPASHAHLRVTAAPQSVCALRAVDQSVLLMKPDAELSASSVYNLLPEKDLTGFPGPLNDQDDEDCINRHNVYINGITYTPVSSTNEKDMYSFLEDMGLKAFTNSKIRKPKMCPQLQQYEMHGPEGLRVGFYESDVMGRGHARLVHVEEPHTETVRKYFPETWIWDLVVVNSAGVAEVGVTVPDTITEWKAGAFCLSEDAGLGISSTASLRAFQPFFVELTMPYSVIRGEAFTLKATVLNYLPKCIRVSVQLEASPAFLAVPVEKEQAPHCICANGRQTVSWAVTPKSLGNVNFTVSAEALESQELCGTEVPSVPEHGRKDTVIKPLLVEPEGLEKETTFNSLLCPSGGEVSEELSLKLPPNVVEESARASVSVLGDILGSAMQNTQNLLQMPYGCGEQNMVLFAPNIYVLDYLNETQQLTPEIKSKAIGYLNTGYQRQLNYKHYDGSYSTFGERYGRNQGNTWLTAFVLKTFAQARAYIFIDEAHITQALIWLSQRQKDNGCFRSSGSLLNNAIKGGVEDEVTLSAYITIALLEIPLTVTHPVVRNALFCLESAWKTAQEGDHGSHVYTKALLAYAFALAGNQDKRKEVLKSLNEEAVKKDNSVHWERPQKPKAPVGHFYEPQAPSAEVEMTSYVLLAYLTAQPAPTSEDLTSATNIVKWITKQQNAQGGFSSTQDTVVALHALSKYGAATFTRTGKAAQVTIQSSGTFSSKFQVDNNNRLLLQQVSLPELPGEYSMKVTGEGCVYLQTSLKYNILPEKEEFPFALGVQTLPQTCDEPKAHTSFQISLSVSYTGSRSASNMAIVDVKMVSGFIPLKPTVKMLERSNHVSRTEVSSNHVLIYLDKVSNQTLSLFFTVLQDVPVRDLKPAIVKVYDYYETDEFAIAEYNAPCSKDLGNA

B1: Flag-tagged recombinant bone morphogenetic protein-1 (BMP-1) (protein)
chain: AATSRPERVWPDGVIPFVIGGNFTGSQRAVFRQAMRHWEKHTCVTFLERTDEDSYIVFTYRPCGCCSYVGRRGGGPQAISIGKNCDKFGIVVHELGHVVGFWHEHTRPDRDRHVSIVRENIQPGQEYNFLKMEPQEVESLGETYDFDSIMHYARNTFSRGIFLDTIVPKYEVNGVKPPIGQRTRLSKGDIAQARKLYKCPACGETLQDSTGNFSSPEYPNGYSAHMHCVWRISVTPGEKIILNFTSLDLYRSRLCWYDYVEVRDGFWRKAPLRGRFCGSKLPEPIVSTDSRLWVEFRSSSNWVGKGFFAVYEAICGGDVKKDYGHIQSPNYPDDYRPSKVCIWRIQVSEGFHVGLTFQSFEIERHDSCAYDYLEVRDGHSESSTLIGRYCGYEKPDDIKSTSSRLWLKFVSDGSINKAGFAVNFFKEVDECSRPNRGGCEQRCLNTLGSYKCSCDPGYELAPDKRRCEAACGGFLTKLNGSITSPGWPKEYPPNKNCIWQLVAPTQYRISLQFDFFETEGNDVCKYDFVEVRSGLTADSKLHGKFCGSEKPEVITSQYNNMRVEFKSDNTVSKKGFKAHFFSEKRPALQPPRGRPHQLKFRVQKRNRTPQ
cleavage of α2M by BMP-1 (Western blot, time course) [1]: b-α2M is cleaved by BMP-1 more readily than recombinant wild-type α2M (rα2M)
cleavage of α2M by BMP-1 (SDS-PAGE) [2]: BMP-1 was unable to cleave methylamine-treated α2M
percent of BMP-1 incorporated into complexes [3]: 42% of sample
percent of BMP-1 incorporated into complexes [4]: 28% of sample
percent of BMP-1 incorporated into complexes [5]: 12% of sample
